Assays:
CLDN3 = target: T1, CLDN3 (Homo sapiens, UniProt O15551); test: Flow cytometric binding assay, HEK-293T-17 CLDN3 transductants; conditions: 10 μg/mL RiboMab02.1 in HEK-293T-17 supernatant
T1 construct: expressed in transfected cells
T1 sequence (O15551 1-220): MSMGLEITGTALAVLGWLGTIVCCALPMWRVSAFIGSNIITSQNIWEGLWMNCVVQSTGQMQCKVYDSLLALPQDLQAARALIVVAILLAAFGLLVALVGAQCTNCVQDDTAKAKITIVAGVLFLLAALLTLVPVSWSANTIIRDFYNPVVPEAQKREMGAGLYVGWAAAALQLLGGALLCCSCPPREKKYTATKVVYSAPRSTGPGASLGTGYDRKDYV
Description: (§1) Cells were first gated for singlets followed by gating for viable lymphocytes (PBMCs) or viable HEK-293T-17 cells. […] Cynomolgus monkey or human PBMCs and HEK-293T-17 transductants stably expressing luciferase (HEK-293T-17_mock), CLDN3, 4, 6 or 9 served as target cells as indicated. The dotted vertical line marks the peak position of unstained populations.

human PBMCs (T cells) = test: T-cell proliferation assay (CFSE-labeled PBMCs, flow cytometry); type: cell-based
Description: CFSE-labeled human PBMCs from three healthy donors were co-cultured with CLDN6-positive PA-1 and OV-90 target cells or with CLDN6-negative but control TAA-positive NUGC-4 as well as target-negative MDA-MB-231 control cells in a 12-well culture plate format. An effector-to-target-cell ratio of 10:1 was applied. In addition, PBMCs without (−) target cells were included separately. […] OKT3 antibody (anti-human CD3; black bars) served as positive control for target-independent CD3-driven T-cell proliferation. After 72 h of incubation, the percentages of proliferating T cells were analyzed by flow cytometry.
HEK-293T-17 producer cells were transfected with BNT142 or a control RiboMab-encoding RNA. Supernatants containing RiboMab02.1 or the control RiboMab (specific for an irrelevant TAA) were used as test items. Two concentrations (100 or 1 ng/mL) of RiboMab-containing supernatant were added to co-cultures of carboxyfluorescein succinimidyl ester (CFSE)-labeled human PBMCs and target-positive or -negative cells. PA-1 or OV-90 served as CLDN6-positive and MDA-MB-231 as target-negative cells. CLDN6-negative NUGC-4 cells (expressing the irrelevant TAA) as well as PBMCs in the absence of any target cells were included as further specificity controls. PBMCs from three healthy donors were compared in this assay. After 72 h of incubation, T cells were analyzed by flow cytometry to determine target-dependent proliferation.

[1] = cynomolgus monkey, in vivo
[2] = Anti-drug antibody (ADA) sandwich immunoassay in mouse serum; type: in vivo, Balb/cJRj mice; conditions: 30 μg RNA-LNP IV single dose; compared to RiboMab_712/711
Description: Four female Balb/cJRj mice received an IV single dose of 30 μg RNA-LNP per mouse (˜1.4 mg/kg). Serum was sampled pre- and 6, 24, 48, 96, 168, 216, 265 and 528 hours (0.25 to 22 days) post-administration.
Anti-RiboMab02.1 and anti-RiboMab_712/711 drug antibodies (ADAs) in mouse sera were determined using a Gyros xPand™ XPA1025 ELISA device from Gyros Protein Technologies AB. Sandwich immunoassay was processed on a Gyrolab Bioaffy 200 CD.
Anti-RiboMab ADAs were captured using 100 μg/mL biotinylated drug antibody. Serum ADA levels were detected with 25 nM Alexa Fluor 647-conjugated AffiniPure goat anti-mouse IgG, Fc fragment specific antibody. Data were generated using the 200-3W-002-A method and the results were analyzed using Gyrolab Evaluator software.
The positive ADA response was determined according to the floating cut-point. Therefore, the cut-point was calculated using the response of the negative sera (pre-bleeds) and the formula, normalization factor (NF)+mean negative controls (NC).
NF=X*SD of the negative samples; X=1.645; SD=standard deviation of the negative sera (pre-bleeds); NC=3 negative controls (pooled negative sera).

[3] = Repeated-dose PK study of BNT142 in mice; type: in vivo, Balb/cJRj mice
Description: Female Balb/cJRj mice (n=4) were injected IV with 10 or 30 μg BNT142 or 30 μg Luc_RNA-LNP as control once weekly for a total of five administrations at the time points indicated by the horizontal dotted lines. Blood was drawn from mice at baseline (0 h), 6 h after (6, 174, 342, 510, and 678 h) and 24 h before (144, 312, 480, and 648 h) each BNT142 or saline administration, respectively. A final blood draw was done 816 h after the first BNT142/saline administration.
Treatment groups received five IV bolus injections of 10 or 30 μg BNT142 (approximately 0.4 and 1.2 mg/kg, respectively) or 30 μg Luc_RNA-LNP at a weekly interval. Serum samples were prepared from blood drawn from the animals at 6 h after (tmax) and 24 h prior to (last detectable concentration [Ctrough]) each BNT142 administration. […] The last blood samples were drawn 816 h (34 days) after the first injection.

CLDN9 = target: T2, CLDN9 (Homo sapiens, UniProt O95484); test: Flow cytometric binding assay, HEK-293T-17 CLDN9 transductants; parameters: expressed in transfected cells; conditions: 10 μg/mL RiboMab02.1 in HEK-293T-17 supernatant
T2 sequence (O95484 1-217): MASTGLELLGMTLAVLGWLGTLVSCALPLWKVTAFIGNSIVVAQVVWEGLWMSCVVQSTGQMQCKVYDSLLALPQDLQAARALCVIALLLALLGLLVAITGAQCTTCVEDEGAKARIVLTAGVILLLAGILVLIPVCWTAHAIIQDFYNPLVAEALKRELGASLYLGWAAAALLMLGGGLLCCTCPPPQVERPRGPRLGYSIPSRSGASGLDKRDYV
Description: as §1

simian CD3 = target: T3, simian CD3 (Macaca fascicularis, UniProt Q95LI5); test: Flow cytometric binding assay, cynomolgus monkey PBMCs; conditions: 10 μg/mL
T3 construct: endogenous in cells; host or cells: cynomolgus monkey PBMCs (T cells)
T3 sequence (Q95LI5 22-198): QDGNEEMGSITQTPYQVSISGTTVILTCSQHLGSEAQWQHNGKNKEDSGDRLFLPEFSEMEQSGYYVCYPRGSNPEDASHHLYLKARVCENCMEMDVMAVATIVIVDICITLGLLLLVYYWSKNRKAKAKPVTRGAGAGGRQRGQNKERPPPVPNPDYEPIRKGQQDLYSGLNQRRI
T3 sequence (Q95LI8 22-171 partner): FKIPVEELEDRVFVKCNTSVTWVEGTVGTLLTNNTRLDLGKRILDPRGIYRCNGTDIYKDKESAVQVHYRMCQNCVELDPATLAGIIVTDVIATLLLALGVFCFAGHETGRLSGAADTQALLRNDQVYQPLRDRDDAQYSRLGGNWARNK
T3 sequence (Q95LI7 23-181 partner): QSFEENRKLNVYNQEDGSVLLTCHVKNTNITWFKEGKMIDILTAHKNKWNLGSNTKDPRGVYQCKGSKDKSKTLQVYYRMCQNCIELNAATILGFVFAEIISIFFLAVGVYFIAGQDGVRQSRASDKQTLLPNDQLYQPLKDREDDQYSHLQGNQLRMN
Description: as §1

With “RiboMab02.1: Fab-(scFv)2-based bispecific antibody (tribody) against CLDN6 and CD3 encoded by BNT142; SEQ ID NOs: 4 and 6; C53S” the “binding to CLDN3” value (CLDN3) was “not to CLDN3, CLDN4 or CLDN9”, the T-cell proliferation (human PBMCs (T cells); PBMCs co-cultured with CLDN6-negative NUGC-4 cells) was “no RiboMab02.1-driven T-cell proliferation” and the T-cell proliferation (human PBMCs (T cells); PBMCs co-cultured with MDA-MB-231 cells) was “no RiboMab02.1-driven T-cell proliferation”. The T-cell proliferation (human PBMCs (T cells); absence of any target cells) was “no RiboMab02.1-driven T-cell proliferation”, the T-cell proliferation (human PBMCs (T cells); with OV-90 cells, 1 ng/mL, 72 h) was 2±3% and the T-cell proliferation (human PBMCs (T cells); with OV-90 cells, 100 ng/mL, 72 h) was 24±3%. The T-cell proliferation (human PBMCs (T cells); with PA-1 cells, 1 ng/mL, 72 h) was ~44±7%, the T-cell proliferation (human PBMCs (T cells); with PA-1 cells, 100 ng/mL, 72 h, E:T 10:1, three donors) was “approximately 58±2%” and the “anticipated full clearance from the human body (five half-lives)” value [1] was 135 to 185 h. The “immunogenic potential (ADA response)” value [2] was “lower immunogenic potential”, the “RiboMab02.1 peak level (Cmax) in serum” value ([3]; 10 μg BNT142 weekly x5, 6 h after last injection) was “up to 7.4 μg/mL” and the “RiboMab02.1 translation between subsequent injections” value ([3]; either BNT142 dose) was “no loss in RiboMab02.1 translation”. The “Ctrough lower than Cmax” value ([3]; within 7 days of each injection) was “approximately 130 fold”, the “binding to CLDN9” value (CLDN9) was “not to CLDN3, CLDN4 or CLDN9” and the “binding to simian CD3” value (simian CD3) was “not simian CD3 was recognized”.

Reference: patent US20250009780A1, “AGENTS ENCODING CLDN6 AND CD3 BINDING ELEMENTS FOR TREATING CLDN6-POSITIVE CANCERS” (BIONTECH SE, priority 2021, published 2025)
